In PMC10889554:

Assays:
[1] = target: human cathepsin K (human) (UniProt P43235)
[2] = target: human cathepsin L (human); assay: enzyme inhibition kinetics (fluorogenic peptide substrate activity assay); inhibitor preincubated with protease 15 min, 37 °C; IC50 from residual velocities, Ki by the Cheng-Prusoff equation; 50 mM sodium acetate pH 5.5, 0.1% polyethylene glycol 1500, 2.5 mM dithiothreitol (cathepsins L, K, V, B, F, C and papain; 50 mM NaCl for cathepsin C)
[3] = target: human cathepsin V (human) (UniProt O60911); assay: as above
[4] = target: human cathepsin K (human) (UniProt P43235); assay: as above
[5] = target: human cathepsin L (human)
[6] = target: human cathepsin V (human) (UniProt O60911)
[7] = target: human cathepsin K (human) (UniProt P43235); remark: listed apart in the source

Sequence of human cathepsin K (human) (P43235 115-329): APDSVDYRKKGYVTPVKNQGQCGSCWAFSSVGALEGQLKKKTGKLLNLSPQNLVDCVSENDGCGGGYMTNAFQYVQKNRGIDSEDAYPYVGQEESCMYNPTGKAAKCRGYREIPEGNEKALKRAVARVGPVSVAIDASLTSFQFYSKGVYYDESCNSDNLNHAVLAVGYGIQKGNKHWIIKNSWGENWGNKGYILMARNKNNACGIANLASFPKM
Sequence of human cathepsin V (human) (O60911 114-334): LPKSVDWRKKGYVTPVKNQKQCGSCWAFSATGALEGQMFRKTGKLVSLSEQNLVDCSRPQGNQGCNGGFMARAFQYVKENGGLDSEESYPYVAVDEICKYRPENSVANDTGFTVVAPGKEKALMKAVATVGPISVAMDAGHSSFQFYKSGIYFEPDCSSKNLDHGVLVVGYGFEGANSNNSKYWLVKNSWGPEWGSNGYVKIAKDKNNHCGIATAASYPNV

Substance	reduction of inhibition of cathepsin K activity by IrThy with 0.3 M NaCl, without heparin [1] [%]	Ki [2] [nM]	Ki [3] [nM]	Ki [4] [nM]	change of % inhibition of cathepsin L activity by IrThy with GAGs at 10 µg/mL [5] [%]	% inhibition of cathepsin V activity by IrThy, no GAG, pH 5.5 [6] [%]	% inhibition of cathepsin K activity by IrThy with chondroitin-4-sulfate at 10 µg/mL [7] [%]	% inhibition of cathepsin K activity by IrThy with chondroitin-6-sulfate at 10 µg/mL [7] [%]	% inhibition of cathepsin K activity by IrThy, no GAG, pH 5.5 [7] [%]
Ir-thyropin (IrThy), recombinant full-length mature protein (natural protein)	20	201	34.7	56.9	< 15	25	16	23	50
IrThy-Cd, recombinant C-terminal Tg1 domain of IrThy (domain or fragment)	–	795	40.7	53.1	–	–	–	–	–
